From article PMC3323579, “Direct Ubiquitin Independent Recognition and Degradation of a Folded Protein by the Eukaryotic Proteasomes-Origin of Intrinsic Degradation Signals” (PLoS ONE, 2012)
No end group written: not given here. *: point of attachment. Biotin = O=C1N[C@H]2[C@H](CS[C@H]2CCCCC(=O)*)N1

Biological target: yeast 26S proteasome (RPN11-3XFLAG) (yeast, UniProt P43588 1-306)
Test: ELISA; competition: 8 nM apoMb on immobilised 26S proteasome with peptides 100 µM to 0.01 µM; 100 nM MG132 in all incubations; Ki from a one site binding fit
Settings: both partners purified

Ki: 800 ± 400 nM
Binder: Biotin-EWQLVLHVWAKVEAD [A-helix peptide of myoglobin]
